Stoichiometry N data for one substance are collected here from publication PMC6200739.

As usually defined, the stoichiometry N is a count of units in the complex or per binding partner.

Experiment [1] has as its target Flag-tagged LDHA containing a nuclear localization signal peptide. Briefly: cross-linking.
Experiment [2] has the same target. Briefly: SEC.

Take “Flag-tagged LDHA containing a nuclear localization signal peptide (enzyme)”: the stoichiometry N in experiment [1] and in experiment [2] was 2 in each case.
